Experimental data: patent publication US20260207704A1, “STAPLED PEPTIDES AND METHODS THEREOF” (priority 2022, published 2026)
*1 amine or outer side, *2 acyl side, *3 side chain or, on linkers, in order; H or OH if unused. Bridges are numbered along the chain shown (N, C = ends). Primed or numbered codes have the meaning given here. [ ]: non-standard residue; d: D form. PyrS2(6) = (S)-3-amino-1-((pent-4-en-1-yloxy)carbonyl)pyrrolidine-3-carboxylic acid, stapled with another olefin-containing amino acid residue through the olefin group, O=C(OCCCC=[*:3])N1CC[C@@](N[*:1])(C(=O)[*:2])C1; B5(4) = 2-amino-2-(pent-4-en-1-yl)hept-6-enoic acid, stapled through each of its two olefin groups with other olefin-containing amino acid residues, O=C(C(CCCC=[*:3])(CCCC=[*:4])N[*:1])[*:2]; PyrS2″ = (S)-3-amino-1-((pent-4-en-1-yloxy)carbonyl)pyrrolidine-3-carboxylic acid (olefin stapling residue), C=CCCCOC(=O)N1CC[C@@](N[*:1])(C(=O)[*:2])C1; PyrS2 = (S)-3-amino-1-((pent-4-en-1-yloxy)carbonyl)pyrrolidine-3-carboxylic acid, olefin staple residue, C=CCCCOC(=O)N1CC[C@@](N[*:1])(C(=O)[*:2])C1; PyrS2(3) = (S)-3-amino-1-((pent-4-en-1-yloxy)carbonyl)pyrrolidine-3-carboxylic acid, olefin residue, C=CCCCOC(=O)N1CC[C@@](N[*:1])(C(=O)[*:2])C1; PyrS2(5) = (S)-3-amino-1-((pent-4-en-1-yloxy)carbonyl)pyrrolidine-3-carboxylic acid, C=CCCCOC(=O)N1CC[C@@](N[*:1])(C(=O)[*:2])C1; B5(3) = 2-amino-2-(pent-4-en-1-yl)hept-6-enoic acid, two olefin arms, C=CCCCC(CCCC=C)(N[*:1])C(=O)[*:2]; 2F3MeF″ = aromatic residue, Cc1cccc(C[C@H](N[*:1])C(=O)[*:2])c1F; Phe(3-COOH) = N[C@@H](Cc1cccc(C(=O)O)c1)C(=O)O; 2F3MeF = Cc1cccc(C[C@H](N[*:1])C(=O)[*:2])c1F; Bta = N[C@@H](Cc1csc2ccccc12)C(=O)O; αAllylPro = C=CC[C@@]1(C(=O)O)CCCN1; BztA = aromatic amino acid residue; tBuAla = CC(C)(C)C[C@H](N)C(=O)O; 3Thi = N[C@@H](Cc1ccsc1)C(=O)O; 2F3MeF(4) = Phe analogue; Nle = CCCC[C@H](N)C(=O)O; TfeGA = not defined here; GlnR = not defined here; PL3 = not defined here; B5 = not defined here; Aib = CC(C)(N)C(=O)O

Tests used:
[1] = target: beta-catenin (human); assay: fluorescence polarization
Chain of beta-catenin (human) (B6V8E6 146-665 limits assumed): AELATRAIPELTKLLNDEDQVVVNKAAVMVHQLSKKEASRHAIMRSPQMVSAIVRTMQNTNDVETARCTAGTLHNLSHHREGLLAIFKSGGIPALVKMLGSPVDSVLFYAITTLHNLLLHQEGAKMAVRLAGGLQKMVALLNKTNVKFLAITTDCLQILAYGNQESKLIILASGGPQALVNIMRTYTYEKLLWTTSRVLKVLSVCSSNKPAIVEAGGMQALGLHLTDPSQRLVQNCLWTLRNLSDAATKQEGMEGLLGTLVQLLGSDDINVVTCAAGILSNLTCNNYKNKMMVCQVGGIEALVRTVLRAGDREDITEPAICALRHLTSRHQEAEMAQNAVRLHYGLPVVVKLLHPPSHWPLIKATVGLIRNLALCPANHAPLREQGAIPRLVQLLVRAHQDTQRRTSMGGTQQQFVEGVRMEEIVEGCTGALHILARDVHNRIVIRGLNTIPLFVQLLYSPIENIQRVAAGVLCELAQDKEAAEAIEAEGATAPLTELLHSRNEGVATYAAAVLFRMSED

[2] = target: beta-catenin (human); assay: cell-based or functional assay

Row | Binder | IC50 [1] | NanoBRET Abs IC50 [2] | NanoBRET Abs IC50 (bin >3.0 uM) [2]
1 | Ac-[αAllylPro]D[tBuAla][B5(4)]D[TfeGA]VAFK[PyrS2″][2F3MeF][Bta][GlnR]A-NH2 (bridge 10-14; not fully specified (bridges); reading uncertain; also: Lys*3 and GlnR*3 marked *3) [I-124] | < 50 nM | > 10000 nM | 
2 | Ac-[PL3]D[tBuAla][B5]N[Phe(3-COOH)]AAFK[PyrS2″][3Thi][BztA][GlnR]A-NH2 (staple 1-4 (inferred); bridge 10-14; not fully specified (residue 10, bridges); printed as Ac-PL3-Asp-Npg-B5-Asn-3COOHF-Ala-Ala-Phe-Lys*3-PyrS2-3Thi-BztA-GlnR*3-Ala-NH2; reading uncertain) [I-82] | < 50 nM |  | 
3 | Ac-[αAllylPro]D[tBuAla][B5(4)]D[TfeGA]AAFK[PyrS2(5)][2F3MeF][Bta][GlnR]V-NH2 (bridge 10-14; not fully specified (bridges); reading uncertain; also: Lys*3 and GlnR*3 marked *3) [I-129] | < 50 nM |  | < 10000 nM
4 | Ac-[αAllylPro]D[tBuAla][B5(4)]D[TfeGA]AAFK[PyrS2″][2F3MeF][Bta][GlnR][Aib]-NH2 (bridge 10-14; not fully specified (bridges); reading uncertain; also: Lys*3 and GlnR*3 marked *3) [I-126] | < 50 nM |  | < 10000 nM
5 | Ac-[αAllylPro]N[tBuAla][B5(4)]D[Phe(3-COOH)]AAFK[PyrS2(6)][3Thi][Bta][GlnR]A-NH2 (staple 1-4 (inferred); bridge 10-14; not fully specified (residue 10, bridges); printed as Ac-PL3-Asn-Npg-B5-Asp-3COOHF-Ala-Ala-Phe-Lys*3-PyrS2-3Thi-BztA-GlnR*3-Ala-NH2; reading uncertain) [I-80] | < 50 nM |  | 
6 | XDQXDXKAFKXXXQA (not fully specified; Ac-PL3-Asp-GlnR**3-B5-Asp-3COOHF-Lys**3-Ala-Phe-Lys*3-PyrS2-3Thi-BztA-GlnR*3-Ala-NH2) [I-74] | < 50 nM |  | 
7 | Ac-[αAllylPro]D[tBuAla][B5(4)]D[TfeGA]AAFK[PyrS2″][2F3MeF][Bta][GlnR][Aib]-NH2 (bridge 10-14; not fully specified (bridges); reading uncertain; also: Lys*3 and GlnR*3 marked *3) [I-127] | < 50 nM |  | < 10000 nM
8 | Ac-[PL3]N[tBuAla][B5]D[Phe(3-COOH)]QAFK[PyrS2″][3Thi][BztA][GlnR]A-NH2 (staple 1-4 (inferred); bridge 10-14; not fully specified (residue 10, bridges); printed as Ac-PL3-Asn-Npg-B5-Asp-3COOHF-Gln-Ala-Phe-Lys*3-PyrS2-3Thi-BztA-GlnR*3-Ala-NH2; reading uncertain; also: Lys10 and GlnR14 marked *3) [I-88] | < 50 nM |  | 
9 | Ac-[αAllylPro]D[tBuAla][B5(3)]D[Phe(3-COOH)][Nle]AFK[PyrS2(3)][3Thi][Bta][GlnR]A-NH2 (bridge 10-14; not fully specified (bridges); printed as Ac-PL3-Asp-Npg-B5-Asp-3COOHF-nLeu-Ala-Phe-Lys*3-PyrS2-3Thi-BztA-GlnR*3-Ala-NH2; reading uncertain) [I-70] | < 50 nM |  | 
10 | Ac-[αAllylPro]D[tBuAla][B5(4)]D[TfeGA]VAFK[PyrS2″][2F3MeF][Bta][GlnR]A-NH2 (bridge 10-14; not fully specified (bridges); reading uncertain; also: Lys*3 and GlnR*3 marked *3) [I-125] | < 50 nM | > 10000 nM | 
11 | XDQXDXKAFKXXXQA (not fully specified; Ac-PL3-Asp-GlnR**3-B5-Asp-3COOHF-Lys**3-Ala-Phe-Lys*3-PyrS2-3Thi-BztA-GlnR*3-Ala-NH2) [I-78] | < 50 nM |  | 
12 | Ac-[αAllylPro]D[tBuAla][B5(4)]D[TfeGA]LAFK[PyrS2″][2F3MeF][Bta][GlnR]A-NH2 (bridge 10-14; not fully specified (bridges); reading uncertain; also: Lys*3 and GlnR*3 marked *3) [I-122] | < 50 nM | > 10000 nM | 
13 | Ac-[PL3]N[tBuAla][B5]D[Phe(3-COOH)]SAFK[PyrS2″][3Thi][BztA][GlnR]A-NH2 (staple 1-4 (inferred); bridge 10-14; not fully specified (residue 10, bridges); printed as Ac-PL3-Asn-Npg-B5-Asp-3COOHF-Ser-Ala-Phe-Lys*3-PyrS2-3Thi-BztA-GlnR*3-Ala-NH2; reading uncertain) [I-84] | < 50 nM |  | 
14 | Ac-[αAllylPro]D[tBuAla][B5(3)]D[Phe(3-COOH)][Aib]AFK[PyrS2(3)][2F3MeF″][Bta][GlnR]A-NH2 (bridge 10-14; not fully specified (bridges); printed as Ac-PL3-Asp-Npg-B5-Asp-3COOHF-Aib-Ala-Phe-Lys*3-PyrS2-2F3MeF-BztA-GlnR*3-Ala-NH2; reading uncertain) [I-69] | < 50 nM |  | 
15 | Ac-[αAllylPro]DL[B5(4)]DDAAFK[PyrS2(6)][3Thi][Bta][GlnR]-NH2 (bridge 10-14; not fully specified (bridges); printed as Ac-PL3-Asp-Leu-B5-Asp-Asp-Ala-Ala-Phe-Lys*3-PyrS2-3Thi-BztA-GlnR*3-NH2; reading uncertain) [I-3] | < 50 nM |  | < 10000 nM
16 | Ac-[αAllylPro]D[tBuAla][B5(4)]D[Phe(3-COOH)]AAFK[PyrS2(6)][2F3MeF(4)][Bta][GlnR]A-NH2 (staple 1-4 (inferred); bridge 10-14; not fully specified (residue 10, bridges); printed as Ac-PL3-Asp-Npg-B5-Asp-3COOHF-Ala-Ala-Phe-Lys*3-PyrS2-2F3MeF-BztA-GlnR*3-Ala-NH2; reading uncertain; also: -CH=CH- in each staple reduced to -CH2-CH2-) [I-77] | < 50 nM |  | 
17 | Ac-[αAllylPro]D[tBuAla][B5]D[Phe(3-COOH)][Aib]AFK[PyrS2][3Thi][Bta][GlnR]A-NH2 (staple 1-4, 4-11; lactam 10-14; not fully specified; printed as Ac-PL3-Asp-Npg-B5-Asp-3COOHF-Aib-Ala-Phe-Lys*3-PyrS2-3Thi-BztA-GlnR*3-Ala-NH2; reading uncertain) [I-67] | < 50 nM |  | 
